Source: patent US20250051471A1, “Anti-Abcb1 Antibodies” (WILLIAM ROBERT ARATHOON LIVING TRUST DATED AUGUST 29, 2016, priority 2021, published 2025)
Numbering of substitutions follows the chain as printed.

Legend:
Type in all cases: cell-based
[1] = system: cynomolgus Red Blood Cells; assay: Antibody binding to cynomolgus red blood cells by flow cytometry; settings: percent of RBC in the R3 gate
Experimental: (§1) Antibody binding to human and cynomolgus RBC was assessed by flow cytometry. Normal human and cynomolgus whole blood was obtained from BiolVT. RBC were prepared by centrifugation of whole blood aliquots (0.5 mL) for 5 min at 500xg. Supernatant (plasma) was removed, and RBC washed 3 times in D-PBS+1 mM EDTA. After the final wash, the RBC were resuspended in D-PBS+1 mM EDTA to a final volume of 0.5 mL. Washed RBC were then diluted in flow cytometry buffer (D-PBS+2% FBS+0.05% sodium azide) to 2% and dispensed at […] into 96-well plates. An equivalent volume ([…]) of antibody serially diluted in flow cytometry buffer to 2× final was added to the RBC, and the mixture incubated for 1 hour at room temperature. Next, RBC were washed 3 times with flow cytometry buffer and resuspended in 50 μL of Alexa Fluor®647 conjugated Fab fragment goat anti-human IgG diluted 1:200 in flow cytometry buffer. After 20 minutes at room temperature RBC were washed twice, resuspended in flow cytometry buffer and analyzed using an Invitrogen™ Attune™ NXT flow cytometer. […] Left panel, RBC are gated (R1) based on forward and side scatter. Middle panel, a second gate (R2) is applied to eliminate any remaining doublets or aggregates. Right panel, fluorescence of the R2 gated cells is assessed and a final gate (R3) is set using unstained RBC. Cells falling in the R3 gate are defined as “positive” for binding and reported as the percent (of R2 gated cells) that fall in the R3 gate. The results are presented at percent positive which represents the percent of RBC in the R3 gate.

human Red Blood Cells = assay: Antibody binding to human red blood cells by flow cytometry; settings: percent of RBC in the R3 gate
Experimental: as §1

N6/ADR cells = assay: Cytotoxicity potency assay (antibody titrated, vincristine constant)
Experimental: The relative potency of the samples was evaluated using N6/ADR cells. These cells expressed both ABCB1 and CD47 with the expression of CD47 ˜40-fold higher than ABCB1 as determined by staining with R-phycoerythrin (R-PE) conjugated, commercially available antibodies against ABCB1 (UIC2, Biolegend) and CD47 (CC2C6, Biolegend). This assay also examined the effect of antibodies on vincristine-induced cytotoxicity using the drug-resistant cell line, N6/ADR. However, in this assay format the concentration of vincristine was held constant while the ABCB1 x CD47 BsAbs (or isotype control antibodies) were serially diluted. This assay measured antibody IC50. Lower IC50 meant higher antibody potency.
The potency assay was performed as follows. Cells were plated in 0.05 mL of assay media at 5000 cells/well in white flat bottom 96-well tissue culture plates and incubated overnight at 37° C., 5% CO2. […] An equivalent volume (0.05 mL) diluted antibody/vincristine mixture was transferred to the N6/ADR cells and incubated at 37° C., in 5% CO^2. After 72 hours, plates were removed from the incubator and allowed to equilibrate to room temperature. Viability was assessed using the Promega® CellTiter-Glo® Luminescent Cell Viability Assay according to the manufacturer's recommended protocol.

B1: 15D3hmzhG1 HIR2/Fc/B1.89v1 huL1(KV2) hmz LC: humanized anti-ABCB1 mono arm antibody with B1.89v1 huL1(KV2) light chain (antibody)
heavy: EVQLVESGGVVVQPGGSLRLSCAASGFTFSRYTMSWVRQAPGKGLEWVATISSGGGNTYYPDSVKGRFTVSRDNSKNSLYLQMNSLRTEDTALYYCARYGAGDAWFAYWGQGTLVTVSSASTKGPSVFPLAPSSKSTSGGTAALGCLVKDYFPEPVTVSWNSGALTSGVHTFPAVLQSSGLYSLSSVVTVPSSSLGTQTYICNVNHKPSNTKVDKRVEPKSCDKTHTCPPCPAPELLGGPSVFLFPPKPKDTLMISRTPEVTCVVVDVSHEDPEVKFNWYVDGVEVHNAKTKPREEQYNSTYRVVSVLTVLHQDWLNGKEYKCKVSNKALPAPIEKTISKAKGQPREPQVCTLPPSREEMTKNQVSLSCAVKGFYPSDIAVEWESNGQPENNYKTTPPVLDSDGSFVLVSKLTVDKSRWQQGNVFSCSVMHEALHNHYTQKSLSLSPG
light: DIVMTQSPLSLPVTPGEPASISCRSSQTIVHSNGNTYLEWYLQKPGQSPQLLIYKVSKRFSGVPDRFSGSGSGTDFTLKISRVEAEDVGVYYCFQASHFPRTFGQGTKLEIKRTVAAPSVFIFPPSDEQLKSGTASVVCLLNNFYPREAKVQWKVDNALQSGNSQESVTEQDSKDSTYSLSSTLTLSKADYEKHKVYACEVTHQGLSSPVTKSFNRGEC
modifications: left off: another chain or arm of the molecule
notes: humanized anti-ABCB1 mono arm antibody with B1.89v1 huL1(KV2) light chain
Binding to cynomolgus Red Blood Cells % Positive Cy744 ([1]; donor Cy744): 0.3%
Binding to cynomolgus Red Blood Cells % Positive Cy745 ([1]; donor Cy745): 0.6%
Binding to cynomolgus Red Blood Cells % Positive Cy747 ([1]; donor Cy747): 4.0%
Binding to human Red Blood Cells % positive D834 (human Red Blood Cells; donor D834): 0.2%
Binding to human Red Blood Cells % positive D835 (human Red Blood Cells; donor D835): 0.2%
Binding to human Red Blood Cells % positive D836 (human Red Blood Cells; donor D836): 0.1%
Binding to human Red Blood Cells % positive D837 (human Red Blood Cells; donor D837): 0.1%
potency increasing cytotoxicity (N6/ADR cells): lesser potency than the corresponding bispecific antibodies

B2: 15D3 hmz HIR2/Fc/B1VL6/CDR3v2a hmz: humanized anti-ABCB1 mono arm antibody with B1VL6/CDR3v2a light chain (antibody)
heavy: B1 heavy
light: B1 light with T28S, I29L, K58N, A96G
modifications: left off: another chain or arm of the molecule; small tags and cut ends
potency increasing cytotoxicity (N6/ADR cells): lesser potency than the corresponding bispecific antibodies
